Tests used:
Format in all cases: biochemical
[1] = HTP-analysis of yeast culture supernatants, no challenge (MUGal hydrolysis); settings: activity of the variant/activity of Rd3BB (SEQ ID NO: 13)
Outline: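 GLA variants expressed in yeast INVSc1, secreted into SD-Ura broth over 66-84 h at 30° C; clarified supernatants tested without challenge. Supernatant mixed with McIlvaine buffer pH 4.8 and 2 mM MUGal (citrate/KCl, pH 4.6), 37° C for 30-180 min, carbonate-quenched, fluorescence Ex 355/Em 448 nm.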

[2] = HTP-analysis of supernatants pretreated with acid (MUGal hydrolysis); settings: activity of the variant/activity of Rd3BB (SEQ ID NO: 13); for Relative Activity of GLA Variants After Challenge at pH 3.3: yeast supernatant
Outline: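 MUGal hydrolysis was tracked by fluorescence (Ex 355 nm, Em 448 nm) after a 30-180 min reaction at 37° C. in pH 4.8 McIlvaine/citrate buffer, stopped with 1 M sodium carbonate. Beforehand, yeast (INVSc1) culture supernatants carrying GLA variants were held 1-3 h at 37° C. in acidic McIlvaine buffer, pH 3.3-4.3.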

[3] = HTP-analysis of supernatants pretreated with base (MUGal hydrolysis); settings: activity of the variant/activity of Rd3BB (SEQ ID NO: 13), challenge at pH 9.7
Outline: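 GLA variants secreted from yeast INVSc1; culture supernatants pre-incubated with McIlvaine buffer pH 7.0–8.2 or 200 mM bicarbonate pH 9.1–9.7 at 37° C. for 1–18 h. Residual activity: MUGal (4 mM stock) hydrolysis at pH 4.3–4.8, 37° C., 30–180 min, carbonate quench; fluorescence Ex 355/Em 448 nm.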

Molecule	Relative Activity of GLA Variants After No Challenge (NC) [1]	Relative Activity of GLA Variants After Challenge at pH 3.7 ([2]; challenge at pH 3.7)	Relative Activity of GLA Variants After Challenge at pH 9.7 [3]	Relative Activity of GLA Variants After No Challenge (NC) ([1]; yeast supernatant)	Relative Activity of GLA Variants After Challenge at pH 3.3 [2]	Relative Activity of GLA Variants After Challenge at pH 9.7 ([3]; yeast supernatant)
546 (protein, Synthetic Polypeptide sequence of Variant No. 546 of mature Human GLA) LDNGLARTPTMGWLHWERFMCNLDCQEEPDSCISEKLFMEMAERMVSEGWKDAGYEYLCIDDCWMAPQRDSEGRLQADPQRFPHGIRQLANHVHSKGLKLGIYADVGNKTCAGFPGSFGYYDIDAQTFADWGVDLLKFDGCYCDSLENLADGYKHMSLALNRTGRSIVYSCEWPLYMWPFQKPNYTEIRQYCNHWRNFADIDDSWASIKSILDWTSRNQERIVDVAGPGGWNDPDMLVIGNFGLSWDQQVTQMALWAIMAAPLFMSNDLRHISPQAKALLQDKDVIAINQDPLGEQGYQLRKGDNFEVWERPLSGDAWAVAIINRQEIGGPRSYTIPVASLGKGVACNPACFITQLLPVKRQLGFYNWTSRLKSHINPTGTVLLQLENTMQMSLKDLL	+ (+ = 1.5 to 5 relative activity over Rd3BB (SEQ ID NO: 13))	+++ (+++ = >10 relative activity over Rd3BB (SEQ ID NO: 13))	++ (++ = >5 to 10 relative activity over Rd3BB (SEQ ID NO: 13))			
633 (protein, Synthetic Polypeptide sequence of Variant No. 633 of mature Human GLA) LDNGLARTPTMGWLHWERFMCNLDCQEEPDSCISEKLFMEMADRMVSEGWKDAGYEYLCIDDCWMAPQRDSEGRLQADPQRFPHGIRQLANSVHSKGLKLGIYADVGNKTCAGFPGSFGYYDIDAQTFADWGVDLLKFDGCYCDSLENLADGYKHMSLALNRTGRPIVYSCEWPLYMWPFQKPNYTEIRQYCNHWRNFADIDDSWASIKSILDWTSRNQERIVDVAGPGGWNDPDMLVIGNFGLSWDQQVTQMALWAIMAAPLFMSNDLRHISPQAKALLQDKDVIAINQDPLGKQGYQLRKGDNFEVWERPLSGDAWAVAIINRQEIGGPRSYTIPVASLGKGVACNPACFITQLLPVKRQLGFYNWTSRLKSHINPTGTVLLQLENTMQMSLKDLL				+ (+ = 1.5 to 5 relative activity over Rd3BB (SEQ ID NO: 13))	++ (++ = >5 to 10 relative activity over Rd3BB (SEQ ID NO: 13))	++ (++ = >5 to 10 relative activity over Rd3BB (SEQ ID NO: 13))
611 (protein, Synthetic Polypeptide sequence of Variant No. 611 of mature Human GLA) LDNGLARTPTMGWLHWERFMCNLDCQEEPDSCISEKLFMEMAERMVSEGWKDAGYEYLCIDDCWMAPQRDSEGRLQADPQRFPHGIRQLANHVHSKGLKLGIYADVGNKTCAGFPGSFGYYDIDAQTFADWGVDLLKFDGCYCDSLENLADGYKHMSLALNRTGRPIVYSCEWPLYMWPFQKPNYTEIRQYCNHWRNFADIDDSWASIKSILDWTSRNQERIVDVAGPGGWNDPDMLVIGNFGLSWDQQVTQMALWAIMAAPLFMSNDLRHISPQAKALLQDKDVIAINQDPLGKQGYQLRKGDNFEVWERPLSGDAWAVAIINRQEIGGPRSYTIPVASLGKGVACNPACFITQLLPVKRQLGFYNWTSRLKSHINPTGTVLLQLENTQQMSLKDLL				+ (+ = 1.5 to 5 relative activity over Rd3BB (SEQ ID NO: 13))	+++ (+++ = >10 relative activity over Rd3BB (SEQ ID NO: 13))	++ (++ = >5 to 10 relative activity over Rd3BB (SEQ ID NO: 13))
610 (protein, Synthetic Polypeptide sequence of Variant No. 610 of mature Human GLA) LDNGLARTPTMGWLHWERFMCNLDCQEEPDSCISEKLFMEMAERMVTEGWKDAGYEYLCIDDCWMAPQRDSEGRLQADPQRFPHGIRQLANHVHSKGLKLGIYADVGNKTCAGFPGSFGYYDIDAQTFADWGVDLLKFDGCYCDSLENLADGYKHMSLALNRTGRPIVYSCEWPLYMWPFQKPNYTEIRQYCNHWRNFADIDDSWASIKSILDWTSRNQERIVDVAGPGGWNDPDMLVIGNFGLSWDQQVTQMALWAIEAAPLFMSNDLRHISPQAKALLQDKDVIAINQDPLGKQGYQLRKGDNFEVWERPLSGDAWAVAIINRQEIGGPRSYTIPVASLGKGVACNPACFITQLLPVKRQLGFYNWTSRLKSHINPTGTVLLQLENTQQMSLKDLL				+ (+ = 1.5 to 5 relative activity over Rd3BB (SEQ ID NO: 13))	+ (+ = 1.5 to 5 relative activity over Rd3BB (SEQ ID NO: 13))	− (− = <1.5 relative activity to Rd3BB (SEQ ID NO: 13))
614 (protein, Synthetic Polypeptide sequence of Variant No. 614 of mature Human GLA) LDNGLARTPTMGWLHWERFMCNLDCQEEPDSCISEKLFMEMAERMVTEGWKDAGYEYLCIDDCWMAPQRDSEGRLQADPQRFPHGIRQLANHVHSKGLKLGIYADVGNKTCAGFPGSFGYYDIDAQTFADWGVDLLKFDGCYCDSLENLADGYKHMSLALNRTGRPIVYSCEWPLYMWPFQKPNYTEIRQYCNHWRNFADIDDSWASIKSILDWTSRNQERIVDVAGPGGWNDPDMLVIGNFGLSWDQQVTQMALWAIMAAPLFMSNDLRHISPQAKALLQDKDVIAINQDPLGKQGYQLRKGDNFEVWERPLSGDAWAVAIINRQEIGGPRSYTIPVASLGKGVACNPACFITQLLPVKRQLGFYNWTSRLKSHINPTGTVLLQLENTMQMSLKDLL				+ (+ = 1.5 to 5 relative activity over Rd3BB (SEQ ID NO: 13))	++ (++ = >5 to 10 relative activity over Rd3BB (SEQ ID NO: 13))	++ (++ = >5 to 10 relative activity over Rd3BB (SEQ ID NO: 13))
613 (protein, Synthetic Polypeptide sequence of Variant No. 613 of mature Human GLA) LDNGLARTPTMGWLHWERFMCNLDCQEEPDSCISEKLFMEMAERMVNEGWKDAGYEYLCIDDCWMAPQRDSEGRLQADPQRFPHGIRQLANHVHSKGLKLGIYADVGNKTCAGFPGSFGYYDIDAQTFADWGVDLLKFDGCYCDSLENLADGYKHMSLALNRTGRPIVYSCEWPLYMWPFQKPNYTEIRQYCNHWRNFADIDDSWASIKSILDWTSRNQERIVDVAGPGGWNDPDMLVIGNFGLSWDQQVTQMALWAIMAAPLFMSNDLRAISPQAKALLQDKDVIAINQDPLGKQGYQLRKGDNFEVWERPLSGDAWAVAIINRQEIGGPRSYTIPVASLGKGVACNPACFITQLLPVKRQLGFYNWTSRLKSHINPTGTVLLQLENTQQMSLKDLL				+ (+ = 1.5 to 5 relative activity over Rd3BB (SEQ ID NO: 13))	++ (++ = >5 to 10 relative activity over Rd3BB (SEQ ID NO: 13))	++ (++ = >5 to 10 relative activity over Rd3BB (SEQ ID NO: 13))
615 (protein, Synthetic Polypeptide sequence of Variant No. 615 of mature Human GLA) LDNGLARTPTMGWLHWERFMCNLDCQEEPDSCISEKLFMEMAERMVNEGWKDAGYEYLCIDDCWMAPQRDSEGRLQADPQRFPHGIRQLANHVHSKGLKLGIYADVGNKTCAGFPGSFGYYDIDAQTFADWGVDLLKFDGCYCDSLENLADGYKHMSLALNRTGRPIVYSCEWPLYMWPFQKPNYTEIRQYCNHWRNFADIDDSWASIKSILDWTSRNQERIVDVAGPGGWNDPDMLVIGNFGLSWDQQVTQMALWAIMAAPLFMSNDLRHISPQAKALLQDKDVIAINQDPLGKQGYQLRKGDNFEVWERPLSGDAWAVAIINRQEIGGPRSYTIPVASLGKGVACNPACFITQLLPVKRQLGFYNWTSRLKSHINPTGTVLLQLENTHQMSLKDLL				+ (+ = 1.5 to 5 relative activity over Rd3BB (SEQ ID NO: 13))	++ (++ = >5 to 10 relative activity over Rd3BB (SEQ ID NO: 13))	++ (++ = >5 to 10 relative activity over Rd3BB (SEQ ID NO: 13))
634 (protein, Synthetic Polypeptide sequence of Variant No. 634 of mature Human GLA) LDNGLARTPTMGWLHWERFMCNLDCQEEPDSCISEKLFMEMADRMVSEGWKDAGYEYLCIDDCWMAPQRDSEGRLQADPQRFPHGIRQLANEVHSKGLKLGIYADVGNKTCAGFPGSFGYYDIDAQTFADWGVDLLKFDGCYCDSLENLADGYKHMSLALNRTGRPIVYSCEWPLYMWPFQKPNYTEIRQYCNHWRNFADIDDSWASIKSILDWTSRNQERIVDVAGPGGWNDPDMLVIGNFGLSWDQQVTQMALWAIMAAPLFMSNDLRHISPQAKALLQDKDVIAINQDPLGKQGYQLRKGDNFEVWERPLSGDAWAVAIINRQEIGGPRSYTIPVASLGKGVACNPACFITQLLPVKRQLGFYNWTSRLKSHINPTGTVLLQLENTMQMSLKDLL				+ (+ = 1.5 to 5 relative activity over Rd3BB (SEQ ID NO: 13))	++ (++ = >5 to 10 relative activity over Rd3BB (SEQ ID NO: 13))	++ (++ = >5 to 10 relative activity over Rd3BB (SEQ ID NO: 13))
